The record followed here is patent US20240174744A1 (SCIRHOM, published 2024).

Test [1] deals with T1, hiR1-FL-WT-T7 (human iRhom1 full length wild type C-terminally tagged with 3 consecutive copies of the T7 … (human, UniProt Q96CC6 1-855)).
T1 construct: also called human iRhom1 variant expressed by MEF-DKO-hiR1-FL-WT-T7 cells
T1 sequence: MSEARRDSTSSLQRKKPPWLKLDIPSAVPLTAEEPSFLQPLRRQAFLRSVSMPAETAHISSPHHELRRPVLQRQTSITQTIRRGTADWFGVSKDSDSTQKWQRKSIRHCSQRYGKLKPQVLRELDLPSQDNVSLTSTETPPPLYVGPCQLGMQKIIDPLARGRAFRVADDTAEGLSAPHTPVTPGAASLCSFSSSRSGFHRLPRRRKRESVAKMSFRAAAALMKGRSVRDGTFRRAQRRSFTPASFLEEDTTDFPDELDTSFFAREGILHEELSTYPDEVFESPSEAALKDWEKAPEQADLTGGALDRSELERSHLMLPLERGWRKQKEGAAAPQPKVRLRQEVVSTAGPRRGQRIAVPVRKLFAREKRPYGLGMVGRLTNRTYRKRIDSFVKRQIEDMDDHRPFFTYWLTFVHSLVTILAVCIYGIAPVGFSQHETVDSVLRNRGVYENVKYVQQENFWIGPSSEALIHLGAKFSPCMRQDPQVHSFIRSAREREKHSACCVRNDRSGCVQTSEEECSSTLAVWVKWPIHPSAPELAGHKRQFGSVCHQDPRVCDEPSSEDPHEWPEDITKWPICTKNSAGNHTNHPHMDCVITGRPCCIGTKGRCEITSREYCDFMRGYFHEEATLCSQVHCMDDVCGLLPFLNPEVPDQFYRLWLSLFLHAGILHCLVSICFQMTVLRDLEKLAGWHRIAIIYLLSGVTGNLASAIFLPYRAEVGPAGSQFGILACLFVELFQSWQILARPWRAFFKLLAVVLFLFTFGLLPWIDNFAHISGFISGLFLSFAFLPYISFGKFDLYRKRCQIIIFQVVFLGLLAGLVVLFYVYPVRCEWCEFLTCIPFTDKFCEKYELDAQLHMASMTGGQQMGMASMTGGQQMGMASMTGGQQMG
The test can be described thus: FACS, MEF-DKO-hiR1-FL-WT-T7 cells. For orientation: Flow cytometry measures light scatter and fluorescence of single cells or particles in a stream.

In test [2] the target is T2, hiR2-FL-P533-T7 (human iRhom2 full length with deletion of P533, 3 x T7 tag) (human, UniProt Q6PJF5 1-856).
T2 construct: The change is a deletion of one residue, not a substitution
T2 sequence: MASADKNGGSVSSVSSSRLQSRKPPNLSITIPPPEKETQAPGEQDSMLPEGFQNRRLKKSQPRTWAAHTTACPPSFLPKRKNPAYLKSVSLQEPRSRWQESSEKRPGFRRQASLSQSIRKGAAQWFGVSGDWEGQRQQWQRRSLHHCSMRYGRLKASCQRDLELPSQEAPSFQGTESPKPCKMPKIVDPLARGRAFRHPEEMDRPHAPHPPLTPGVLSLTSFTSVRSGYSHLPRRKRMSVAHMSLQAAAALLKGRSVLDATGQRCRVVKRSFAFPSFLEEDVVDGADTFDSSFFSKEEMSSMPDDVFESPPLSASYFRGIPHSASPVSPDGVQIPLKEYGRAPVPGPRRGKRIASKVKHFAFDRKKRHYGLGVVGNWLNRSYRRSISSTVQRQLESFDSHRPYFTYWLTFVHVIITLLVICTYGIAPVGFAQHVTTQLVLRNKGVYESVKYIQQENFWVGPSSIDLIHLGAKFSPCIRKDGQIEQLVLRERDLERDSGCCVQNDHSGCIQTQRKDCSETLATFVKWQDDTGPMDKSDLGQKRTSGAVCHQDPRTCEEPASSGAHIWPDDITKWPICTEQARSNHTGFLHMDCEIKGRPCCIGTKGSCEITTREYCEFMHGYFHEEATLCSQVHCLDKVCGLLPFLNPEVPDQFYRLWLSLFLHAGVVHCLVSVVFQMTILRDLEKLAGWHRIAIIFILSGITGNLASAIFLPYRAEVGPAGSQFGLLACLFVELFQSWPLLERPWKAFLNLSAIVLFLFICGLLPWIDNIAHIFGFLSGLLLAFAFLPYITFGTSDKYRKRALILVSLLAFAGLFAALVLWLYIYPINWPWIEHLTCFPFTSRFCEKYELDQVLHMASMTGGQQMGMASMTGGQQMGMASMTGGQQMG
The test can be described thus: FACS on MEF-DKO-hiR2-FL-P533- -T7 cells.

Test [3] deals with T1, hiR1-FL-WT-T7 (human iRhom1 full length …). The test can be described thus: FACS on MEF-DKO-hiR1-FL-WT-T7 cells.
The target in test [4] is T3, miR2-FL-WT-T7 (mouse iRhom2 full length wild type C-terminally tagged with 3 consecutive copies of the T7 … (mouse, UniProt Q80WQ6 1-827)).
T3 construct: also called mouse iRhom2 variant expressed by MEF-DKO-miR2-FL-WT-T7 cells
T3 sequence: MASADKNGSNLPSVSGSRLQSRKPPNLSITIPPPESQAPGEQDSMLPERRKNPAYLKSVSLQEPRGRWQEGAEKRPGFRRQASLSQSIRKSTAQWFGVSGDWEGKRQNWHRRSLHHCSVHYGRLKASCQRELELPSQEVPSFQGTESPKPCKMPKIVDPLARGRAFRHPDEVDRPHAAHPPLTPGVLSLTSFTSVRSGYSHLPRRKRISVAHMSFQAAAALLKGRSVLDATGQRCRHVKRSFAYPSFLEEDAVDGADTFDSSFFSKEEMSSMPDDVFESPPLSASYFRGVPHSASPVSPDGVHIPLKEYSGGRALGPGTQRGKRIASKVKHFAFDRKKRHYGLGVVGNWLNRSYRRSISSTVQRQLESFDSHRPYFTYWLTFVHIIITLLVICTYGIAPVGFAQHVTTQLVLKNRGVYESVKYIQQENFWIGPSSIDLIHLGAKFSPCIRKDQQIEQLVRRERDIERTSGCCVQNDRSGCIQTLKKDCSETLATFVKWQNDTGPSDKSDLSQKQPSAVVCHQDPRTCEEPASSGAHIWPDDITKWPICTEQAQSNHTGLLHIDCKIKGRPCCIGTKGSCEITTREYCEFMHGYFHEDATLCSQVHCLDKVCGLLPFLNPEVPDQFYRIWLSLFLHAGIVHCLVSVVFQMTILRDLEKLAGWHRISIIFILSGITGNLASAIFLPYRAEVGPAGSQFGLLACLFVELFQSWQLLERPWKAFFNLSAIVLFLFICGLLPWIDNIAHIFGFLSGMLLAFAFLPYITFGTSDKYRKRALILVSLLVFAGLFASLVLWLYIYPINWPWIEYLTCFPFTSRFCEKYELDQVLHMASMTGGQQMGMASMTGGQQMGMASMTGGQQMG
Briefly: FACS on MEF-DKO-miR2-FL-WT-T7 cells.

B1: antibody 48 (antibody, V domains shown)
VH: QVQLQQSGTELVRPGTSVKVSCKASGYAFTNYLIEWVKQRPGQGLEWIGVINPGSGFTKYNEKFKGKATLTADKSSSTVYMHLSSLTSEDSAVYFCARGLYRAMDYWGQGTSVTVSS
VL: DIQMTQSPASQSASLGESVTITCLASQTIATWLAWYQQKPGKSPQLLIYGATTLADGVPSRFSGGGSGTKFSFKISSLQAEDFVSYYCQQLYSTPYTFGGGTKLEIK
notes: Mouse IgG, kappa light chain; also called clone #48; purified antibody 48
In the case of B1, in test [1], the binding result is listed as “no binding (tested: 3 µg/ml)”.

B2: antibody 3 (antibody, V domains shown)
VH: QVTLKESGPGILQPSQTLSLTCSFSGFSLTTFAMGIGWVRQPSGKGLEWLAHIWWDGEKYNNPVLKSRLTISKDTSKNQVFLRIANVDTPDTATYYCARISSIYYIIDNWGQGTSVTVSS
VL: DIVLTQSPATLSVTPGHSVSLSCRASQSISNNLHWYQKKSHESPRLLIKYVSQSISGIPSRFSGSGSGTDFTLSINSVETEDFGMYFCQQSYNWPLTFGAGTKLELK
notes: Mouse IgG, kappa light chain; also called clone #3; purified antibody 3
On to B2, for which the binding result in test [2], in test [3] and in test [4] was “no binding (tested: 3 µg/ml)” in each case.
